Key:
[1] = target: PD-1 on in vitro activated primary human T cells (human) (UniProt Q15116); experiment: flow cytometry, detection antibody on Ki-67+ CD8+ activated T cells after 4 d with 10 nM RV1 precomplexed with IL-15
[2] = target: PD-1 on in vitro activated primary human T cells (human) (UniProt Q15116); experiment: flow cytometry, detection antibody on Ki-67+ CD8+ activated T cells; average pooled over non-PD-1-binding test samples and concentrations
[3] = target: PD-1 on in vitro activated primary human T cells (human) (UniProt Q15116); experiment: flow cytometry, detection antibody on Ki-67+ CD8+ activated T cells after 4 d with 1 nM RV1 precomplexed with IL-15
[4] = target: PD-1 on in vitro activated primary human T cells (human) (UniProt Q15116); experiment: flow cytometry, detection antibody on Ki-67+ CD4+ activated T cells after 4 d with 100 nM IL-15Rα-Fc precomplexed with IL-15
[5] = target: PD-1 on in vitro activated primary human T cells (human) (UniProt Q15116); experiment: flow cytometry, detection antibody on Ki-67+ CD4+ activated T cells after 4 d with 100 nM RV2 precomplexed with IL-15
[6] = target: PD-1 on in vitro activated primary human T cells (human) (UniProt Q15116); experiment: flow cytometry, detection antibody on Ki-67+ CD8+ activated T cells after 4 d with 1 nM RV2 precomplexed with IL-15
[7] = target: PD-1 on in vitro activated primary human T cells (human) (UniProt Q15116); experiment: flow cytometry, detection antibody on Ki-67+ CD8+ activated T cells after 4 d with 100 nM IL-15 alone
[8] = target: PD-1 on in vitro activated primary human T cells (human) (UniProt Q15116); experiment: flow cytometry, detection antibody on Ki-67+ CD4+ activated T cells after 4 d with 10 nM IL-15Rα-Fc precomplexed with IL-15
[9] = target: PD-1 on in vitro activated primary human T cells (human) (UniProt Q15116); experiment: flow cytometry, detection antibody on Ki-67+ CD4+ activated T cells after 4 d with 1 nM RV2 precomplexed with IL-15
[10] = target: PD-1 on in vitro activated primary human T cells (human) (UniProt Q15116); experiment: flow cytometry, detection antibody on Ki-67+ CD4+ activated T cells after 4 d with 100 nM IL-15 alone
[11] = target: PD-1 on in vitro activated primary human T cells (human) (UniProt Q15116); experiment: flow cytometry, detection antibody on Ki-67+ CD4+ activated T cells, media only
[12] = target: PD-1 on in vitro activated primary human T cells (human) (UniProt Q15116); experiment: flow cytometry, detection antibody on Ki-67+ CD4+ activated T cells after 4 d with 100 nM RV1 precomplexed with IL-15
[13] = target: PD-1 on in vitro activated primary human T cells (human) (UniProt Q15116); experiment: flow cytometry, detection antibody on Ki-67+ CD4+ activated T cells after 4 d with 1 nM RV1 precomplexed with IL-15
[14] = target: PD-1 on in vitro activated primary human T cells (human) (UniProt Q15116); experiment: flow cytometry, detection antibody on Ki-67+ CD8+ activated T cells after 4 d with 10 nM RV2 precomplexed with IL-15
[15] = target: PD-1 on in vitro activated primary human T cells (human) (UniProt Q15116); experiment: flow cytometry, detection antibody on Ki-67+ CD4+ activated T cells after 4 d with 10 nM RV1 precomplexed with IL-15
[16] = target: PD-1 on in vitro activated primary human T cells (human) (UniProt Q15116); experiment: flow cytometry, detection antibody on Ki-67+ CD4+ activated T cells after 4 d with 10 nM RV2 precomplexed with IL-15
[17] = target: PD-1 on in vitro activated primary human T cells (human) (UniProt Q15116); experiment: flow cytometry, residual staining by detection antibody on Ki-67+ CD4+ activated T cells in the presence of competitors RV29 and RV32 (IL-15 precomplexed); average pooled over both constructs and 100, 10 and 1 nM
[18] = target: PD-1 on in vitro activated primary human T cells (human) (UniProt Q15116); experiment: flow cytometry, detection antibody on Ki-67+ CD8+ activated T cells after 4 d with 10 nM IL-15Rα-Fc precomplexed with IL-15
[19] = target: PD-1 on in vitro activated primary human T cells (human) (UniProt Q15116); experiment: flow cytometry, detection antibody on Ki-67+ CD8+ activated T cells, media only
[20] = target: PD-1 on in vitro activated primary human T cells (human) (UniProt Q15116); experiment: flow cytometry, detection antibody on Ki-67+ CD8+ activated T cells after 4 d with 100 nM RV1 precomplexed with IL-15
[21] = target: PD-1 on in vitro activated primary human T cells (human) (UniProt Q15116); experiment: flow cytometry, detection antibody on Ki-67+ CD4+ activated T cells after 4 d with 10 nM IL-15 alone
[22] = target: PD-1 on in vitro activated primary human T cells (human) (UniProt Q15116); experiment: flow cytometry, detection antibody on Ki-67+ CD8+ activated T cells after 4 d with 100 nM IL-15Rα-Fc precomplexed with IL-15
[23] = target: PD-1 on in vitro activated primary human T cells (human) (UniProt Q15116); experiment: flow cytometry, detection antibody on Ki-67+ CD8+ activated T cells after 4 d with 10 nM IL-15 alone
[24] = target: PD-1 on in vitro activated primary human T cells (human) (UniProt Q15116); experiment: flow cytometry, detection antibody on Ki-67+ CD4+ activated T cells; average pooled over non-PD-1-binding test samples and concentrations
[25] = target: PD-1 on in vitro activated primary human T cells (human) (UniProt Q15116); experiment: flow cytometry, detection antibody on Ki-67+ CD8+ activated T cells after 4 d with 100 nM RV2 precomplexed with IL-15
[26] = target: PD-1 on in vitro activated primary human T cells (human) (UniProt Q15116); experiment: flow cytometry, detection antibody on Ki-67+ CD4+ activated T cells after 4 d with 1 nM IL-15 alone
[27] = target: PD-1 on in vitro activated primary human T cells (human) (UniProt Q15116); experiment: flow cytometry, detection antibody on Ki-67+ CD8+ activated T cells after 4 d with 1 nM IL-15 alone
[28] = target: PD-1 on in vitro activated primary human T cells (human) (UniProt Q15116); experiment: flow cytometry, detection antibody on Ki-67+ CD4+ activated T cells after 4 d with 1 nM IL-15Rα-Fc precomplexed with IL-15
[29] = target: PD-1 on in vitro activated primary human T cells (human) (UniProt Q15116); experiment: flow cytometry, residual staining by detection antibody on Ki-67+ CD8+ activated T cells in the presence of competitors RV29 and RV32 (IL-15 precomplexed); average pooled over both constructs and 100, 10 and 1 nM
[30] = target: PD-1 on in vitro activated primary human T cells (human) (UniProt Q15116); experiment: flow cytometry, detection antibody on Ki-67+ CD8+ activated T cells after 4 d with 1 nM IL-15Rα-Fc precomplexed with IL-15

Sequence of PD-1 on in vitro activated primary human T cells (human) (Q15116 25-288): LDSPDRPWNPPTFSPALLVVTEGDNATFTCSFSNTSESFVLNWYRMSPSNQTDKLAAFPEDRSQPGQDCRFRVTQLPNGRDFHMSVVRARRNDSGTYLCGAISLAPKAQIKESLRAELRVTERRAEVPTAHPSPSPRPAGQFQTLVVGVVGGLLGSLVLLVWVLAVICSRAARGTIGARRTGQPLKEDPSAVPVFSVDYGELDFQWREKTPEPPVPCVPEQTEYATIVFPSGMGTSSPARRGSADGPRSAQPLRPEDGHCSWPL

## PD-1 detection antibody (clone EH12.21H7)
[1]
  MFI of PD-1 staining: 1890 MFI
[2]
  MFI of PD-1 staining (average): 2190 MFI
[3]
  MFI of PD-1 staining: 1870 MFI
[4]
  MFI of PD-1 staining: 4380 MFI
[5]
  MFI of PD-1 staining: 5840 MFI
[6]
  MFI of PD-1 staining: 1920 MFI
[7]
  MFI of PD-1 staining: 3220 MFI
[8]
  MFI of PD-1 staining: 4480 MFI
[9]
  MFI of PD-1 staining: 4200 MFI
[10]
  MFI of PD-1 staining: 6550 MFI
[11]
  MFI of PD-1 staining: 4020 MFI
[12]
  MFI of PD-1 staining: 4830 MFI
[13]
  MFI of PD-1 staining: 4100 MFI
[14]
  MFI of PD-1 staining: 2020 MFI
[15]
  MFI of PD-1 staining: 4620 MFI
[16]
  MFI of PD-1 staining: 5070 MFI
[17]
  MFI of PD-1 staining (average): 3090 MFI
[18]
  MFI of PD-1 staining: 2120 MFI
[19]
  MFI of PD-1 staining: 2250 MFI
[20]
  MFI of PD-1 staining: 2370 MFI
[21]
  MFI of PD-1 staining: 6440 MFI
[22]
  MFI of PD-1 staining: 2110 MFI
[23]
  MFI of PD-1 staining: 3190 MFI
[24]
  MFI of PD-1 staining (average): 4830 MFI
[25]
  MFI of PD-1 staining: 2820 MFI
[26]
  MFI of PD-1 staining: 4870 MFI
[27]
  MFI of PD-1 staining: 2050 MFI
[28]
  MFI of PD-1 staining: 4280 MFI
[29]
  MFI of PD-1 staining (average): 1460 MFI
[30]
  MFI of PD-1 staining: 1690 MFI
